# Test results as given in patent publication US20240376455.
# Test system: T1, LPG10159 (Contaminated/multiple)
# T1 sequence: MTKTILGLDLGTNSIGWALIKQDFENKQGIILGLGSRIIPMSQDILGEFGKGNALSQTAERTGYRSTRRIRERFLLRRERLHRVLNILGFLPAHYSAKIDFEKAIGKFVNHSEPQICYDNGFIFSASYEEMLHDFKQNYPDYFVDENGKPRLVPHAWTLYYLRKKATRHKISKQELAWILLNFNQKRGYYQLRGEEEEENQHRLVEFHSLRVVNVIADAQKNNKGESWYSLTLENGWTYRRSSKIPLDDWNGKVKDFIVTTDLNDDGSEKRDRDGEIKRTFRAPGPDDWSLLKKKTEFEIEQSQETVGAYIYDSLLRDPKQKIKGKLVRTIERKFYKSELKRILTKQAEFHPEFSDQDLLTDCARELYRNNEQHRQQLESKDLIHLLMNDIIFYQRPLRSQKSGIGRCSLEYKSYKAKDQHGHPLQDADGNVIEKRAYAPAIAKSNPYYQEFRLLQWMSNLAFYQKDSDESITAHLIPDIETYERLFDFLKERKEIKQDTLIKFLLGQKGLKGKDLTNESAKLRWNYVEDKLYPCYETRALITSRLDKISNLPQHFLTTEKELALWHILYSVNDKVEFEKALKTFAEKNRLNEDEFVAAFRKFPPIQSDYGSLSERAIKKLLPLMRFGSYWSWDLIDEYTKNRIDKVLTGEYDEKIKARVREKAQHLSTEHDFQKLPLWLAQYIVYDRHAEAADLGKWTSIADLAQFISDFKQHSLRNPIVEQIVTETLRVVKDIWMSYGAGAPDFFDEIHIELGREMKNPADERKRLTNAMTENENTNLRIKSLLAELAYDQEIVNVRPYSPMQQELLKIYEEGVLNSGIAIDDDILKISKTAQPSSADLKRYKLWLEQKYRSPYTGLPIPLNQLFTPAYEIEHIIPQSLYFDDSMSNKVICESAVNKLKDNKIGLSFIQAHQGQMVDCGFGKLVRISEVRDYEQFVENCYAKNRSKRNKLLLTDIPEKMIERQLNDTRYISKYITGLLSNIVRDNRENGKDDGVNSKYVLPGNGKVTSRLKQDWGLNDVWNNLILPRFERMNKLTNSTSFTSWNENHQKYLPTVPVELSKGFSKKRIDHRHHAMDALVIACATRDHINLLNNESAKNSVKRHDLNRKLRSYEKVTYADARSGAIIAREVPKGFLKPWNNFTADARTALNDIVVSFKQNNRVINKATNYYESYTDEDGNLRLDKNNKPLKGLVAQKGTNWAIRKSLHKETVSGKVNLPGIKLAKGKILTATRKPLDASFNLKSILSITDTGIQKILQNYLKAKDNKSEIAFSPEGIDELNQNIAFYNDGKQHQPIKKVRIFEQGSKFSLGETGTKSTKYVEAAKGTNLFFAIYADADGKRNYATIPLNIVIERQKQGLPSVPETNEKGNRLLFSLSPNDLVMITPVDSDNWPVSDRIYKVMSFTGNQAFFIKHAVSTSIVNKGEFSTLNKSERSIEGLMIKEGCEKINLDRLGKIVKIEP
# Assay: cleavage_in_vitro
# Conditions: PAM SEQ ID 83
sequence,measurement,value
GUUGUGAAUUGCUUUAAAGAAAGCAAUUCACAAUAAGGAUUAUUCCGUUGUGAAAACAUCUAGCGCCUCGUCUAUCUACGGGGCAUUUU / GATATAGACGTTGTGGCTGTTGTAGTAGAAATTC / GAATTTCTACTACAACAGCCACAACGTCTATATC [LPG10159 sgRNA L2 ; Library 2 target AGAAATTC],activity (% target strand cleaved),2.5
